Experimental data published in article PMC5614878.
pKd: −log10 of the molar value.

Tests used:
[1] = target: p51 (polymerase domain of HIV-1 reverse transcriptase) (HIV-1) (UniProt P03366); assay: NMR
[2] = target: HIV-1 reverse transcriptase p66 p66 (Human immunodeficiency virus 1) (UniProt O93215); conditions: cited from earlier work

## p51 (polymerase domain of HIV-1 reverse transcriptase) (from UniProt P03366 600-1025) (domain or fragment)
[1]
  percent dimeric: 80%
  stoichiometry N: 2

## HIV-1 reverse transcriptase p66 p66 (from UniProt O93215)
[2]
  pKd: 5.40
